Here are results for six substances from paper PMC7840601.

Assay [1] concerns the target human C3b (CompTech) (human). Description: SPR; 300 RU human C3b amine-coupled on a CM5 chip; FH1-4 WT or variant injected in duplicate at up to 40 uM; Biacore X100, 25 C, 30 ul/min, 10 mM HEPES-buffered saline, 3 mM EDTA, 0.05% surfactant P20; steady-state affinity model. Background: Surface plasmon resonance follows binding to a sensor surface in real time, without labels.

The target of assay [2] is human C3b (CompTech) (human).

With “FH1-4 D130N (from UniProt P08603 19-263) (domain or fragment)”, in assay [1], the KD as a ratio of the KD of WT FH1-4 was found to be 1.44 x WT.

For the substance “FH1-4 M162V (from UniProt P08603 19-263) (domain or fragment)”, the KD as a ratio of the KD of WT FH1-4 in assay [1] stood at 1.23 x WT.

On to “FH1-4 G69E (from UniProt P08603 19-263) (domain or fragment)”, for which the KD as a ratio of the KD of WT FH1-4 in assay [1] stood at 1.2 x WT.

In assay [2], “FH1-4 Q81P (from UniProt P08603 19-263) (domain or fragment)” registered a cofactor activity for FI-mediated cleavage of C3b on sheep erythrocytes, IC50 as a multiple of WT FH1-4 of 11 x WT and a decay acceleration of the C3 convertase (C3bBb) on sheep erythrocytes, IC50 as a multiple of WT FH1-4 of 25.1 x WT.

Take “FH1-4 A161S (from UniProt P08603 19-263) (domain or fragment)”: in assay [1], the KD as a ratio of the KD of WT FH1-4 was determined as 0.97 x WT.

Turning to “FH1-4 S159N (from UniProt P08603 19-263) (domain or fragment)”, the KD as a ratio of the KD of WT FH1-4 in assay [1] was determined as 1.2 x WT.
